{"source": "patent US12241890B2", "about": "“Methods for generating barcoded nucleic acid molecules using fixed cells” (10X Genomics, Inc., priority 2019, dated 2025)", "assay_type_in_all_cases": "cell-based", "key": {"PFA-fixed Jurkats cells [1]": {"system": "PFA-fixed Jurkats cells", "experiment": "RNA yield and DV200 from PFA-fixed Jurkats after Subtilisin A with or without compound (1) (Example 2)", "conditions": "4% PFA-fixed Jurkats, 50 mM compound (1) where present", "procedure": "Materials and Methods: A protease stock solution of 100 mg/ml Subtilisin A from Bacillus licheniformis (Sigma-Aldrich, cat. #P5380) was prepared in H2O and stored at −20° C. A stock solution of the un-fixing agent of 100 mM compound (1) in 30 mM Tris-HCl, 1 mM EDTA, pH 6.8, was prepared and stored at room temperature. Dissociated single cells (Jurkats) were pelleted by 400 g centrifugation for 5 minutes and the supernatant removed. A fixing reagent solution of 4% PFA in PBS with 0.2 U/μL Qiagen RNAse Inhibitor (Qiagen, cat. #129916) was added to the pelleted cells and the mixture incubated at 4° C. overnight. The resulting fixed cells were quenched with 10% FBS in PBS and spun down for 5 minutes at 500 g, 4° C. 150,000 fixed cells were washed once in PBS then resuspended in 100 μL, 30 mM Tris-HCL, 1 mM EDTA, pH 6.8. RNAse Inhibitor was added to the fixed cell solution together with one of the following: (a) 5 mg/mL Subtilisin A; or (b) 5 mg/mL Subtilisin A and 50 mM compound (1). The fixed cell solution with Subtilisin A protease and with or without the un-fixing agent of compound (1) was allowed to incubate at 8° C. for 2 hours, followed by 15 minutes at 70° C. shaking continuously at 300 rpm on an Eppendorf Thermomixer. The resulting cell solutions were spun down for 5 minutes at 500 g, 4° C., and the supernatant and pellet fractions were collected separately. RNA extraction of the collected fractions was carried out using Qiagen 96 Kit (Qiagen, cat. #74181), bulk RNA sequencing, and/or single cell 3′ sequencing. Control samples of fresh cells, fresh cells with un-fixing conditions, and fixed cells without un-fixing treatment were also prepared and RNA extracted. RNA yield was assessed by Qubit HS Assay (Q32855) and yield and DV200 quality metric was assessed by Agilent 4200 High Sensitivity ScreenTape (5067-5579)."}, "PFA-fixed Jurkats cells [2]": {"system": "PFA-fixed Jurkats cells", "experiment": "RNA yield and DV200 from PFA-fixed Jurkats after Subtilisin A with or without compounds (1) and/or (8) (Example 4)", "conditions": "5 mg/mL Subtilisin A", "procedure": "A. Protease preparation: A protease stock solution of 100 mg/ml Subtilisin A from Bacillus licheniformis (Sigma-Aldrich, cat. #P5380) was prepared in H2O and stored at −20° C.\n(§1) B. Un-fixing agent stock solutions: A stock solution of the un-fixing agent of 100 mM compound (1) in 30 mM Tris-HCl, 1 mM EDTA, pH 6.8, was prepared and stored at room temperature. A stock solution of the un-fixing agent of 100 mM compound (8) in 30 mM Tris-HCl, 1 mM EDTA, pH 6.8, was prepared and stored at room temperature.\n(§2) C. Fixed cell preparation: Dissociated single cells (Jurkats) were pelleted by 400 g centrifugation for 5 minutes and the supernatant removed. A fixing reagent solution of 4% PFA in PBS with 0.2 U/μL Qiagen RNAse Inhibitor (Qiagen, cat. #129916) was added to the pelleted cells and the mixture incubated at 4° C. overnight. The resulting fixed cells were quenched with 10% FBS in PBS and spun down for 5 minutes at 500 g, 4° C. 150,000 fixed cells were washed once in PBS then resuspended in 100 μL, 30 mM Tris-HCL, 1 mM EDTA, pH 6.8.\nD. Cell un-fixing/protease treatment: RNAse Inhibitor was added to the fixed cell solution together with one of the following: (a) 5 mg/mL Subtilisin A protease; (b) 5 mg/mL Subtilisin A protease and 50 mM compound (1); (c) 5 mg/mL Subtilisin A protease and 50 mM compound (8); (d) 5 mg/mL Subtilisin A protease and 25 mM compound (8) and 25 mM compound (1).\nThe fixed cell solutions treated with Subtilisin A protease and with or without the un-fixing agents of compounds (1) and/or (8) were allowed to incubate under one of the following conditions: (1) 8° C. for 2 hours; (2) 8° C. for 2 hours, followed by 15 minutes at 70° C. shaking continuously at 300 rpm on an Eppendorf Thermomixer; (3) 53° C. for 45 min; or (4) 53° C. for 45 min followed by 15 minutes at 70° C. shaking continuously at 300 rpm on an Eppendorf Thermomixer. The resulting cell solutions were spun down for 5 minutes at 500 g, 4° C., and the supernatant and pellet fractions were collected separately.\n(§3) E. RNA quantitation: RNA extraction of the collected fractions was carried out using Qiagen 96 Kit (Qiagen, cat. #74181), bulk RNA sequencing, and/or single cell 3′ sequencing. Control samples of fresh cells, fresh cells with un-fixing conditions, and fixed cells without un-fixing treatment were also prepared and RNA extracted. RNA yield was assessed by Qubit HS Assay (Q32855) and yield and DV200 quality metric was assessed by Agilent 4200 High Sensitivity ScreenTape (5067-5579)."}, "PFA-fixed Jurkats cells [3]": {"system": "PFA-fixed Jurkats cells", "experiment": "RNA yield and DV200 from PFA-fixed Jurkats after Proteinase K with or without compounds (1) and/or (8) (Example 5)", "conditions": "4% PFA-fixed Jurkats, 53° C./45 min", "procedure": "A. Protease preparation: A stock solution of 20 mg/mL Proteinase K (Sigma-Aldrich, cat. #_AM258) was stored at −20° C.\nas §1, §2\nD. Cell un-fixing/protease treatment: RNAse Inhibitor was added to the fixed cell solution together with one of the following: (a) 0.1 mg/mL Proteinase K protease; (b) 0.2 mg/mL Proteinase K protease; (c) 0.4 mg/mL Proteinase K protease; (d) 0.2 mg/mL Proteinase K protease and 50 mM compound (1); (e) 0.4 mg/mL Proteinase K protease and 50 mM compound (1); (f) 0.2 mg/mL Proteinase K protease and 50 mM compound (8); (g) 0.4 mg/mL Proteinase K protease and 50 mM compound (8); (h) 0.2 mg/mL Proteinase K protease and 25 mM compound (8) and 25 mM compound (1); or (i) 0.4 mg/mL Proteinase K protease and 25 mM compound (8) and 25 mM compound (1). The fixed cell solutions treated with Proteinase K protease and with or without the un-fixing agents of compounds (1) and/or (8) were allowed to incubate at 53° C. for 45 min. The resulting cell solutions were spun down for 5 minutes at 500 g, 4° C., and the supernatant and pellet fractions were collected separately.\nas §3"}, "PFA-fixed Jurkats cells [4]": {"system": "PFA-fixed Jurkats cells", "experiment": "Bulk un-fixing, then single-cell partition barcoding, 3'-RT and cDNA electropherogram (Example 7)", "conditions": "Fresh cells partitioned with the RT assay reagent mix and the protease", "procedure": "A. Protease preparation: A stock solution of 20 mg/mL Proteinase K (Sigma-Aldrich, cat. #AM258) was stored at −20° C.\nB. Un-fixing agent of compound (8) stock solutions: A stock solution of the un-fixing agent of 100 mM compound (8) in 30 mM Tris-HCl, 1 mM EDTA, pH 6.8, was prepared and stored at room temperature.\nas §2\nD. Cell un-fixing/protease treatment: RNAse Inhibitor was added to the fixed cell solution together with 0.1 mg/mL Proteinase K and 50 mM compound (8). The fixed cell solution treated with the protease and compounds (8) were allowed to incubate at 53° C. for 45 min. The resulting cell solutions were spun down for 5 minutes at 500 g, 4° C., and the supernatant and pellet fractions were collected separately. […]"}, "[5]": {"conditions": "5 mg/mL Subtilisin A, 8° C./2 hr"}, "[6]": {"conditions": "un-fixing agent 50 mM (25 mM each in combination), 8° C./2 hr then 70° C./15 min"}, "[7]": {"conditions": "un-fixing agent 50 mM (25 mM each in combination), 53° C./45 min"}, "[8]": {"conditions": "Proteinase K at 0.2 mg/mL, un-fixing agent 50 mM (25 mM each in combination)"}, "[9]": {"conditions": "Proteinase K at 0.4 mg/mL, un-fixing agent 50 mM (25 mM each in combination)"}}}
{"molecule": "Subtilisin A: protease Subtilisin A from Bacillus licheniformis (Sigma-Aldrich, cat. #P5380) (protein, UniProt P00780 106-379, looked up) Subtilisin Carlsberg: AQTVPYGIPLIKADKVQAQGFKGANVKVAVLDTGIQASHPDLNVVGGASFVAGEAYNTDGNGHGTHVAGTVAALDNTTGVLGVAPSVSLYAVKVLNSSGSGSYSGIVSGIEWATTNGMDVINMSLGGASGSTAMKQAVDNAYAKGVVVVAAAGNSGSSGNTNTIGYPAKYDSVIAVGAVDSNSNRASFSSVGAELEVMAPGAGVYSTYPTNTYATLNGTSMASPHVAGAAALILSKHPNLSASQVRNRLSSTATYLGSSFYYGKGLINVEAAAQ", "values": [{"measurement": "Pellet Qubit Avg (SD), RNA yield", "setting": "PFA-fixed Jurkats cells [1]; [5]", "value": 21}, {"measurement": "Pellet Tapestation Avg (SD), RNA yield", "setting": "PFA-fixed Jurkats cells [1]; [5]", "value": 21}, {"measurement": "Supernatant Tapestation Avg (SD), RNA yield", "setting": "PFA-fixed Jurkats cells [1]; [5]", "value": 8}, {"measurement": "RNA recovery relative to fresh cells", "setting": "PFA-fixed Jurkats cells [1]; Subtilisin A, 2 h at 8° C.", "value": "about 7%"}, {"measurement": "Pellet Qubit Avg (SD), RNA yield", "setting": "PFA-fixed Jurkats cells [2]; 8° C./2 hr", "value": 108.4}, {"measurement": "Pellet Tapestation Avg (SD), RNA yield", "setting": "PFA-fixed Jurkats cells [2]; 8° C./2 hr", "value": 49}, {"measurement": "Supernatant Qubit Avg (SD), RNA yield", "setting": "PFA-fixed Jurkats cells [2]; 8° C./2 hr", "value": 0}, {"measurement": "Pellet Qubit Avg (SD), RNA yield", "setting": "PFA-fixed Jurkats cells [2]; [6]", "value": 106}, {"measurement": "Pellet Tapestation Avg (SD), RNA yield", "setting": "PFA-fixed Jurkats cells [2]; [6]", "value": 58}, {"measurement": "Supernatant Qubit Avg (SD), RNA yield", "setting": "PFA-fixed Jurkats cells [2]; [6]", "value": 398}, {"measurement": "Supernatant Tapestation Avg (SD), RNA yield", "setting": "PFA-fixed Jurkats cells [2]; [6]", "value": 231}, {"measurement": "Pellet Qubit Avg (SD), RNA yield", "setting": "PFA-fixed Jurkats cells [2]; [7]", "value": 144}, {"measurement": "Pellet Tapestation Avg (SD), RNA yield", "setting": "PFA-fixed Jurkats cells [2]; [7]", "value": 244}, {"measurement": "Supernatant Qubit Avg (SD), RNA yield", "setting": "PFA-fixed Jurkats cells [2]; [7]", "value": 245}, {"measurement": "Supernatant Tapestation Avg (SD), RNA yield", "setting": "PFA-fixed Jurkats cells [2]; [7]", "value": 252}]}
{"molecule": "Proteinase K: the protease, Proteinase K (Sigma-Aldrich, cat. #AM258) (protein, UniProt P06873 106-384, looked up) Proteinase K: AAQTNAPWGLARISSTSPGTSTYYYDESAGQGSCVYVIDTGIEASHPEFEGRAQMVKTYYYSSRDGNGHGTHCAGTVGSRTYGVAKKTQLFGVKVLDDNGSGQYSTIIAGMDFVASDKNNRNCPKGVVASLSLGGGYSSSVNSAAARLQSSGVMVAVAAGNNNADARNYSPASEPSVCTVGASDRYDRRSSFSNYGSVLDIFGPGTSILSTWIGGSTRSISGTSMATPHVAGLAAYLMTLGKTTAASACRYIADTANKGDLSNIPFGTVNLLAYNNYQA", "values": [{"measurement": "Pellet Qubit Avg (SD), RNA yield", "setting": "PFA-fixed Jurkats cells [3]; Proteinase K at 0.1 mg/mL", "value": 1350}, {"measurement": "Pellet Tapestation Avg (SD), RNA yield", "setting": "PFA-fixed Jurkats cells [3]; Proteinase K at 0.1 mg/mL", "value": 1804.5}, {"measurement": "Supernatant Qubit Avg (SD), RNA yield", "setting": "PFA-fixed Jurkats cells [3]; Proteinase K at 0.1 mg/mL", "value": 321.3}, {"measurement": "Supernatant Tapestation Avg (SD), RNA yield", "setting": "PFA-fixed Jurkats cells [3]; Proteinase K at 0.1 mg/mL", "value": 152.55}, {"measurement": "Pellet Qubit Avg (SD), RNA yield", "setting": "PFA-fixed Jurkats cells [3]; [8]", "value": 107.82}, {"measurement": "Pellet Tapestation Avg (SD), RNA yield", "setting": "PFA-fixed Jurkats cells [3]; [8]", "value": 127.8}, {"measurement": "Supernatant Qubit Avg (SD), RNA yield", "setting": "PFA-fixed Jurkats cells [3]; [8]", "value": 251.1}, {"measurement": "Supernatant Tapestation Avg (SD), RNA yield", "setting": "PFA-fixed Jurkats cells [3]; [8]", "value": 121.05}, {"measurement": "Pellet Qubit Avg (SD), RNA yield", "setting": "PFA-fixed Jurkats cells [3]; [9]", "value": 106.2}, {"measurement": "Pellet Tapestation Avg (SD), RNA yield", "setting": "PFA-fixed Jurkats cells [3]; [9]", "value": 76.725}, {"measurement": "Supernatant Qubit Avg (SD), RNA yield", "setting": "PFA-fixed Jurkats cells [3]; [9]", "value": 266.4}, {"measurement": "Supernatant Tapestation Avg (SD), RNA yield", "setting": "PFA-fixed Jurkats cells [3]; [9]", "value": 125.55}, {"measurement": "cDNA electropherogram profile from single-cell 3'-RT (FIG. 11B)", "setting": "PFA-fixed Jurkats cells [4]", "value": "no mound profile"}]}
